Test results published in the supplement of paper PMC10567573.
± gives the standard deviation.

Assay: protein stability index of a GFP-peptide fusion (GPS, HEK-293T) (PSI 1-6); higher = more stable
[1] = treatment: DMSO, c terminus: a fixed tail appended
[2] = treatment: MLN4924 1 uM, 8 h, c terminus: a fixed tail appended
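Note: 24-mer peptide tiles fused after GFP, lentivirally expressed, FACS-sorted into six equal bins by GFP/DsRed ratio, decoded by Illumina sequencing, PSI is the read-weighted mean bin number.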

| Sequence | protein stability index [1] | protein stability index [2] | protein stability index (treatment: MLN4924 1 uM, 8 h, c terminus: native) |
| --- | --- | --- | --- |
| QAALQKQQEVVVAGSSLPTSSKVN [ACBD3] | 5.04 ± 0.18 | 5.03 ± 0.063 |  |
| RQNLKLLVEETSCQQNMIQELIET [CEP70] | 3.42 ± 0.16 | 3.43 ± 0.45 |  |
| AGRLMRPSVKYLSHPRVQSGCDKE [RNF180] | 4.06 ± 0.21 | 4.11 ± 0.21 |  |
| QPTIVEALLGYEMVQVACGASHVL [NEK8] | 2.75 ± 0.45 | 2.74 ± 0.7 |  |
| FALLADKAAQQGKQEENDVVEKLN [SNX8] | 5.38 ± 0.13 | 5.33 ± 0.15 |  |
| EALQNFFSLACSLMGPSRMSLFSL [M1AP] | 2.89 ± 0.75 | 3.09 ± 0.74 |  |
| NDYICPATNQCTIDKNRRKSCQAC [ESR2] | 4.44 ± 0.21 | 4.83 ± 0.17 |  |
| QERQMLQALKFLPVPSAPVIDLAE [FSD1] | 3.47 ± 0.31 | 3.3 ± 0.25 |  |
| EGFHNYHHSFPYDYSASEYRWHIN [SCD] | 2.37 ± 0.18 | 2.48 ± 0.18 |  |
| RGTQYSSLDSLDGLSLTDESDSCV [PSD2] | 5.26 ± 0.22 | 5.3 ± 0.14 |  |
| RLIRELAEFEKLSDQVKISEEALR [SAT2] | 3.16 ± 0.35 | 3.43 ± 0.3 |  |
| PSATRAKPGPQDTVERPFYDLWAS [NOP53] | 3.08 ± 0.37 | 3.24 ± 0.37 |  |
| IERCIFPERIYQGSSGSYFVKDPQ [PI4K2A] | 3.25 ± 0.22 | 3.2 ± 0.35 |  |
| DGKLFPSDGFRDCKKGDPKHGKRK [ELF3] | 5.1 ± 0.29 | 5.38 ± 0.26 |  |
| VNLQVATYSKFQPQSPDFLDITNP [UFD1] | 2.53 ± 0.23 | 2.57 ± 0.27 |  |
| ALKHYVESASSQSGCLRISIQKLS [NECAB1] | 2.05 ± 0.12 | 2.18 ± 0.28 |  |
| NQIMPKTGFLIIILAIIAKEGDCA [MAGEA6] | 2.98 ± 0.45 | 2.47 ± 0.61 |  |
| HELVWAKMKGFGFWPAKVMQKEDN [ZMYND11] | 3.06 ± 0.37 | 3.09 ± 0.47 |  |
| GSARSHASSRASENQSPSSSNYFS [ZBTB22] | 4.28 ± 0.22 | 4.74 ± 0.2 |  |
| RAGGGGGGDYGLVTAGCGFGKDFR [PPTC7] | 3.33 ± 0.51 | 3.13 ± 0.21 |  |
| DMAGKIKLWDLRTTKCVRQYEGHV [DCAF4] | 2.56 ± 0.18 | 2.68 ± 0.35 |  |
| GFFDFETFDVDEYEHYERVENGDF [CDC14A] | 4.14 ± 0.51 | 4.49 ± 0.52 |  |
| TSYKPYLNRDEEIIKQLQKGVQQK [DENND6A] | 3.34 ± 0.25 | 3.27 ± 0.34 |  |

| Sequence | protein stability index [1] | protein stability index [2] | protein stability index (treatment: MLN4924 1 uM, 8 h, c terminus: native) |
| --- | --- | --- | --- |
| IANPNSLHHVKTMWYPEIKHFCPR [RHOBTB2] | 2.36 ± 0.25 | 2.64 ± 0.2 |  |
| NNEAFMNQEITKAFHVRRTNRVKE [RHOBTB2] | 4.44 ± 0.25 | 4.48 ± 0.21 |  |
| GLSLCQFQNFSLHDPLYGKLFSTY [LPCAT4] | 1.81 ± 0.56 | 2.06 ± 0.21 |  |
| YECNHCGKGFRHSSSLAQHQRKHA [ZNF8] | 5.08 ± 0.32 | 5.12 ± 0.28 |  |
| KLYHQSKGPGAPQYPAGTQGEQLE [SPSB2] | 4.72 ± 0.29 | 5 ± 0.32 |  |
| KESMSEADRAQKMDGESEEEQESV [EHMT1] | 5.71 ± 0.35 | 5.59 ± 0.23 |  |
| APGSASSSKVSGVLKKLAQSRRTA [YJU2B] | 3.81 ± 0.3 | 3.87 ± 0.34 |  |
| GGGNARATGMFLQYTVPGTEGVTQ [ZFYVE21] | 3.51 ± 0.35 | 3.57 ± 0.18 |  |
| KERLLLSAAVPAGQTYVDAGYEVD [CHIT1] | 4.67 ± 0.15 | 4.67 ± 0.12 |  |
| KVLLDCGADPDSRDFDNNTPLHIA [FEM1A] | 4.02 ± 0.17 | 4.07 ± 0.15 |  |
| VEILMILFAFMLVYPKEFHLNRGN [PPEF2] |  | 3.58 ± 0.62 |  |
| PNLSPHAPWNYHYHCPGSPDHQVP [TRAF3IP2] | 3.29 ± 0.34 | 3.54 ± 0.32 |  |
| TTQSAEVGAAETTLTELRRTVQSL [KRT18] | 4.63 ± 0.22 | 4.55 ± 0.4 |  |
| PFGILSPNVLCSMSGKSPVESSLN [FBXO34] | 2.88 ± 0.33 | 2.64 ± 0.37 |  |
| LEEQGATWRHRETLIIAVLVSASI [FATE1] | 2.77 ± 0.49 | 2.7 ± 0.44 |  |
| MGRKKKKQLKPWCWYCNRDFDDEK [ZNF207] | 2.39 ± 0.33 | 3.05 ± 0.34 |  |
| VLALGLRTDVGITHQHWQQFEPQL [RSAD1] | 2.23 ± 0.39 | 2.35 ± 0.21 |  |
| APAPAPASSGQHHDFLSDLFSDDY [CEBPB] | 5.13 ± 0.29 | 5.14 ± 0.16 |  |
| GNDSFQLQVTEDVNSSIKTFFCPN [CLCN6] | 3.54 ± 0.31 | 3.6 ± 0.26 |  |
| SSTSCLMPSKLFAGLVHVKQCIVA [CRYL1] | 2.44 ± 0.31 | 2.11 ± 0.25 |  |
| DRENGSDNLPSSAGSGDKPLSDPA [TPD52L2] | 5.49 ± 0.26 | 5.45 ± 0.29 |  |
| METQAEQQELETLPTTKMAQTNPT [CRYBA1] | 5.24 ± 0.3 | 5.3 ± 0.29 |  |
| DKNISPRENILVSLGAVGEGFHNY [SCD] | 3.23 ± 0.49 | 3.18 ± 0.24 |  |

| Sequence | protein stability index [1] | protein stability index [2] | protein stability index (treatment: MLN4924 1 uM, 8 h, c terminus: native) |
| --- | --- | --- | --- |
| KLQVRLATKTEPKKLEKYLQKLSA [ELOA2] | 2.31 ± 0.41 | 2.81 ± 0.42 |  |
| NILPNTQKVTCFYQPAPYFAAEAR [TENT5D] | 2.49 ± 0.32 | 2.59 ± 0.23 |  |
| DPNFKMEHQNKRSPLHAAAEAGHV [EHMT1] | 4.89 ± 0.22 | 5.04 ± 0.18 |  |
| QPPQSQAQVPPAAPHHHHHHSHSG [PLK2] | 4.71 ± 0.2 | 4.64 ± 0.13 |  |
| EIIRVILKLYEQWKNFDERKEMAT [CCNC] | 2.09 ± 0.52 | 2.38 ± 0.3 |  |
| RILLRMTLGREVMSPLQAMSSYTV [NLN] | 2.67 ± 1.1 | 2.45 ± 0.32 |  |
| KTSLLDQLTNTSGTVIGVTSCIVI [NETO1] | 3.14 ± 0.51 | 2.76 ± 0.43 |  |
| QGVISQLEDTCKTIEECCRKQKQE [TRIM55] | 5.2 ± 0.29 | 5.34 ± 0.31 |  |
| EKVKKRPGGRPEVIYNYVQRPFIR [BTBD10] | 2.9 ± 0.31 | 2.73 ± 0.63 |  |
| LFCEVSVVQDSVNISGHTNTNTLK [SPOPL] | 2.76 ± 0.4 | 2.84 ± 0.67 |  |
| YTGRAPNLDKMADNLLAAADKYAL [SPOPL] | 2.78 ± 0.42 | 3.06 ± 0.5 |  |
| GGGEGHQPAGNRRGQARRLAPNFR [BEX3] | 4.93 ± 0.17 | 4.92 ± 0.26 |  |
| RVMKVEDREGPSSSKLVTKKAPQP [HDAC6] | 4.93 ± 0.26 | 5.14 ± 0.077 |  |
| GFTTATEFHQRRSEIIQITTGSKE [RAD51] | 4.22 ± 0.44 | 4.35 ± 0.47 |  |
| CLHMFLQDEIIDKSYTPSKIRHA [SNX3] |  |  | 2.77 ± 0.46 |
| LRKSIFSESRKPTVSIMEPGETRR [TRIM29] | 3.66 ± 0.32 | 3.93 ± 0.58 |  |
| YVLKYMESNAAQYSPEALASIQNH [EFHC1] | 2.31 ± 0.14 | 2.35 ± 0.24 |  |
| QDSFEAAGNSTSGSRAGASSFSDP [KCNA3] | 5.42 ± 0.31 | 5.35 ± 0.16 |  |
| EAFWAEWKDLTLSTRPEEGCSLHE [TCAP] | 3.98 ± 0.18 | 4 ± 0.2 |  |
| EQGKPVIPAAVLAGFTGSGPIQLW [ETS2] | 2.55 ± 0.43 | 2.54 ± 0.16 |  |
| SLAETECRYATQLQQIQGLIGGLE [KRT15] | 2.83 ± 0.24 | 2.91 ± 0.32 |  |
| DQDLRTYLDKAPPPGLPAETIKDL [CDK4] | 5.07 ± 0.28 | 4.94 ± 0.2 |  |
| PFIVTLEGNALQGPILQKDYVQLE [ZNF449] | 2.46 ± 0.18 | 2.59 ± 0.31 |  |

| Sequence | protein stability index [1] | protein stability index [2] | protein stability index (treatment: MLN4924 1 uM, 8 h, c terminus: native) |
| --- | --- | --- | --- |
| QELNELFKPVVAAQKISKGADPKS [ZC3H15] | 4.8 ± 0.13 | 4.92 ± 0.18 |  |
| NAVRSAMKSEEQKIKDARKGPLVP [KMT5A] | 4.75 ± 0.11 | 5.07 ± 0.13 |  |
| EEKSFWEMEKSFREEEKTFWKKYR [CCDC70] | 4.18 ± 0.68 | 4.232 ± 0.013 |  |
| SLGGIRACTLTVFPPEETTPSPSR [KLHL13] | 3.63 ± 0.21 | 3.77 ± 0.17 |  |
| VSAQRERPRRRDGPEHATRLNGTA [DVL3] | 4.7 ± 0.17 | 4.81 ± 0.21 |  |
| LWKMKPRRNLEEDDYLHKDTGETS [STEAP1] | 4.07 ± 0.3 | 4.08 ± 0.42 |  |
| LTSLLACLPAGPRVYFLKGGYETF [DUSP5] | 2.34 ± 0.42 | 2.36 ± 0.47 |  |
| AECALNERGVEGDFLIRDSESSPS [NCK2] | 5.42 ± 0.33 | 5.48 ± 0.2 |  |
| PTYKVMYKIVTAREWRCCPGHSGV [EMID1] | 2.5 ± 0.57 | 2.89 ± 0.75 |  |
| EKNLLLQNQVDELERKFRCQQEQL [LRRC45] | 4.27 ± 0.31 | 4.34 ± 0.23 |  |
| KYVSKELAKEIRVKAEPFIKWLKE [EIF5] | 3.08 ± 0.4 | 3.07 ± 0.46 |  |
| KEQHLWDVDLLDSKVIEILDSQTE [DLC1] | 4.79 ± 0.26 | 4.5 ± 0.18 |  |
| LVLAAVVAWCYYSVSLRKAERLRA [MYORG] | 3.27 ± 0.64 | 3.31 ± 0.33 |  |
| VQEQQKQLQDQDQKLLEQTQIIGE [FBXO28] | 5.43 ± 0.28 | 5.36 ± 0.09 |  |
| APGIGPPEPWPGGCTGDEAESRGH [MYCL] | 4.97 ± 0.55 | 5.51 ± 0.23 |  |
| AASSYSFSDLNSTRGDADMYDLPK [EMD] | 4.43 ± 0.23 | 4.53 ± 0.26 |  |
| IPLEQGSSCNGPGQTTGHPYYLRS [FAN1] | 5.05 ± 0.38 | 5 ± 0.18 |  |
| EGRGGRPGSTRPHRSACSSAAVRG [HAGHL] | 4.52 ± 0.17 | 4.58 ± 0.19 |  |
| QEGLLDRCVSFQARFAEKEELMLV [HDAC6] | 2.44 ± 0.34 | 2.52 ± 0.53 |  |
| PPSNFLEIDIFNPQTVGVGRARFT [SNX12] | 3.27 ± 0.34 | 3.27 ± 0.21 |  |
| SEIEMAKAQRDYELKKAAYDIEVN [FLOT1] | 4.89 ± 0.29 | 5.02 ± 0.17 |  |
